Assay results: patent US9102755B2, “Highly stabilized epidermal growth factor mutants” (PnP Biopharm Co., Ltd., priority 2013, dated 2015)

Assays:
Assay type in all cases: physicochemical
[1] = Structure and thermal stability (Tm) by circular dichroism; conditions: 0.1 mg/ml; for Structure change: circular dichroism 190-250 nm, 20 mM sodium phosphate pH 5.5, 20° C., versus wild-type EGF; for Tm (melting temperature): circular dichroism, 20° C. to 95° C. at 1° C./min
Protocol: The structure and thermal stability of the purified EGF mutant were measured through a circular dichroism analysis using a J-810 spectrometer (JASCO). As the wild-type EGF, the purified EGF prepared in Example 2 was used. In order to analyze the structure, each EGF was dissolved in 20 mM sodium phosphate (pH 5.5) to be uniformly a final concentration of 0.1 mg/ml. And then, the dissolved EGF solution was added to 0.1 cm cell, and then its structure was analyzed under the conditions of, as 190 nm to 250 nm region, band width 1 nm, response 0.25 sec, data pitch 0.1 nm, scanning speed 20 nm/min, cell length 1 cm, accumulation 8 times, and a temperature of 20° C.
In order to analyze the thermal stability, a wavelength of 200 nm was determined through a comparison analysis of far-UV at the Tm (melting temperature) of 20° C. and 95° C., and progressed in a concentration of 0.1 mg/ml in 0.1 cm cell. As the conditions, it was measured at 20° C. to 95° C. under condition of 1° C./min.
The structure is changed at the band of about 195 nm when generating a folding-unfolding phenomenon. Using it, the melting temperature (Tm) was measured in the range of 20 to 95° C., and thus the accurate Tm value was analyzed. As a result, as for the structure change, most mutants had the similar structure as the wild-type EGF, and thus there were few changes. […] It can be confirmed that the thermal stabilities of M2 and M3 were improved by 87° C.

[2] = Solubility of wild-type and mutant EGFs in 20 mM sodium phosphate (pH 5.5)
Protocol: 1 mg of the respective wild-type and mutant EGFs prepared was dissolved in 1 ml of 20 mM sodium phosphate (pH 5.5 that is the similarly pH environment as cosmetics). In order to remove undissolved EGF, the mixture thus obtained was centrifuged and then supernatant was obtained. The concentration of the supernatant thus obtained was measured by using a Bradford method and UV method.

[3] = Circular dichroism after incubation at 60° C.; conditions: 0.3 mg/ml, 20 mM sodium phosphate pH 5.5, 60° C., five days
Protocol: The stabilities of wild-type EGF and mutants should be confirmed through being stored at room temperature for a long period of time, but there is a disadvantage in that the time is too long. Therefore, the incubation test was performed at extreme environment for a short period of time. 0.3 mg/ml of each of the wild-type EGF and mutants was dissolved in 20 mM sodium phosphate (pH 5.5), and then subjected to the incubation in a water bath of 60° C. The sampling was performed per 24 hours unit, and then centrifuged at 13000 rpm and 4° C. for 15 minutes to collect the supernatant. The supernatant was diluted with 20 mM sodium phosphate (pH 5.5), and its structure was measured by using a circular dichroism. And then, the supernatant was added to 0.1 cm cell, and its structure was analyzed under the conditions of, in a region of 190 nm to 250 nm, band width 1 nm, response 0.25 sec, data pitch 0.1 nm, scanning speed 20 nm/min, cell length 1 cm, accumulation 8 times, a temperature of 20° C. […] In order to easily confirm such a result, the graph as illustrated in FIG. 3 is used using the ratio of the signal value at a first day to the signal value at 200 nm that has the biggest difference of signals. Table. […] From such a result, it can be confirmed that the EGF mutants prepared in the present invention have excellent thermal stability and solubility.

Substance | Structure change [1] | Tm (melting temperature) [1] | Solubility ([2]; 1 mg in 1 ml 20 mM sodium phosphate pH 5.5, supernatant, Bradford and UV method) | Solubility (Comparison with wild-type %) ([2]; 20 mM sodium phosphate pH 5.5, relative to wild-type EGF) | Percentage to wild-type EGF (CD signal value at 200 nm) [3]
A-4-1: EGF mutant, fourth serine substituted with glutamic acid (SEQ ID NO: 62) (NSDEECPLSHDGYCLHDGVCMYIEALDKYACNCVVGYIGERCQYRDLKWWELR; not fully specified; Epidermal growth factor; UniProt P01133 971-1023, looked up, variant S4E) | No change | (76° C.) |  |  | 
A-8-2: EGF mutant, eighth leucine substituted with serine (SEQ ID NO: 63) (NSDSECPSSHDGYCLHDGVCMYIEALDKYACNCVVGYIGERCQYRDLKWWELR; not fully specified; Epidermal growth factor; UniProt P01133 971-1023, looked up, variant L8S) | No change | (76° C.) | 0.6991 mg/mL | 137% | 
A-8-3: EGF mutant, eighth leucine substituted with proline (SEQ ID NO: 64) (NSDSECPPSHDGYCLHDGVCMYIEALDKYACNCVVGYIGERCQYRDLKWWELR; not fully specified; Epidermal growth factor; UniProt P01133 971-1023, looked up, variant L8P) | No change | (76° C.) |  |  | 
B-19-2: EGF mutant, 19th valine substituted with serine (SEQ ID NO: 67) (NSDSECPLSHDGYCLHDGSCMYIEALDKYACNCVVGYIGERCQYRDLKWWELR; not fully specified; Epidermal growth factor; UniProt P01133 971-1023, looked up, variant V19S) | No change | (76° C.) |  |  | 
B-19-3: EGF mutant, 19th valine substituted with glutamic acid (SEQ ID NO: 68) (NSDSECPLSHDGYCLHDGECMYIEALDKYACNCVVGYIGERCQYRDLKWWELR; not fully specified; Epidermal growth factor; UniProt P01133 971-1023, looked up, variant V19E) | No change | (76° C.) |  |  | 84.22%
B-19-4: EGF mutant, 19th valine substituted with aspartic acid (SEQ ID NO: 69) (NSDSECPLSHDGYCLHDGDCMYIEALDKYACNCVVGYIGERCQYRDLKWWELR; not fully specified; Epidermal growth factor; UniProt P01133 971-1023, looked up, variant V19D) | No change | (76° C.) |  |  | 
B-19-5: EGF mutant, 19th valine substituted with lysine (SEQ ID NO: 70) (NSDSECPLSHDGYCLHDGKCMYIEALDKYACNCVVGYIGERCQYRDLKWWELR; not fully specified; Epidermal growth factor; UniProt P01133 971-1023, looked up, variant V19K) | No change | (76° C.) |  |  | 
C-26-2: EGF mutant, 26th leucine substituted with serine (SEQ ID NO: 73) (NSDSECPLSHDGYCLHDGVCMYIEASDKYACNCVVGYIGERCQYRDLKWWELR; not fully specified; Epidermal growth factor; UniProt P01133 971-1023, looked up, variant L26S) | No change | (76° C.) |  |  | 
D-34-1: EGF mutant, 34th valine substituted with serine (SEQ ID NO: 75) (NSDSECPLSHDGYCLHDGVCMYIEALDKYACNCSVGYIGERCQYRDLKWWELR; not fully specified; Epidermal growth factor; UniProt P01133 971-1023, looked up, variant V34S) | No change | (76° C.) |  |  | 
D-34-2: EGF mutant, 34th valine substituted with glutamic acid (SEQ ID NO: 76) (NSDSECPLSHDGYCLHDGVCMYIEALDKYACNCEVGYIGERCQYRDLKWWELR; not fully specified; Epidermal growth factor; UniProt P01133 971-1023, looked up, variant V34E) | No change | (76° C.) |  |  | 111.10%
D-34-3: EGF mutant, 34th valine substituted with aspartic acid (SEQ ID NO: 77) (NSDSECPLSHDGYCLHDGVCMYIEALDKYACNCDVGYIGERCQYRDLKWWELR; not fully specified; Epidermal growth factor; UniProt P01133 971-1023, looked up, variant V34D) | No change | (76° C.) |  |  | 
D-34-4: EGF mutant, 34th valine substituted with lysine (SEQ ID NO: 78) (CNCKVGYIGE) | No change | (76° C.) |  |  | 
D-35-5: EGF mutant, 35th valine substituted with serine (SEQ ID NO: 79) (CNCVSGYIGE) | No change | (76° C.) |  |  | 
D-35-6: EGF mutant, 35th valine substituted with glutamic acid (SEQ ID NO: 80) (CNCVEGYIGE) | No change | (76° C.) |  |  | 100.14%
D-35-7: EGF mutant, 35th valine substituted with aspartic acid (SEQ ID NO: 81) (CNCVDGYIGE) | No change | (76° C.) |  |  | 
D-35-8: EGF mutant, 35th valine substituted with lysine (SEQ ID NO: 82) (CNCVKGYIGE) | No change | (76° C.) |  |  | 
D-38-9: EGF mutant, 38th isoleucine substituted with serine (SEQ ID NO: 83) (CNCVVGYSGE) | No change | (76° C.) |  |  | 
D-38-11: EGF mutant, 38th isoleucine substituted with glutamic acid (SEQ ID NO: 85) (CNCVVGYEGE) | No change | (76° C.) |  |  | 
D-38-12: EGF mutant, 38th isoleucine substituted with aspartic acid (SEQ ID NO: 86) (CNCVVGYDGE) | No change | (76° C.) |  |  | 
E-48-3: EGF mutant, 48th lysine substituted with arginine (SEQ ID NO: 90) (RCQYRDLRWWELR) | No change | (76° C.) |  |  | 
E-50-4: EGF mutant, 50th tryptophan substituted with serine (SEQ ID NO: 91) (RCQYRDLKWSELR) | No change | (76° C.) |  |  | 
E-50-5: EGF mutant, 50th tryptophan substituted with histidine (SEQ ID NO: 92) (RCQYRDLKWHELR) | No change | (76° C.) |  |  | 
E-50-6: EGF mutant, 50th tryptophan substituted with glutamic acid (SEQ ID NO: 93) (RCQYRDLKWEELR) | No change | (76° C.) |  |  | 
